Tests used:
BTF = BTF (UniProt Q9NYF8); assay: anti-Flag co-IP, BTF blot; settings: reference: wild type Flag-PSF; sites T687
TRAP150 = TRAP150 (UniProt Q9Y2W1); assay: anti-Flag co-IP, TRAP150 blot; settings: reference: wild type Flag-PSF; sites T687

- binding against the reference (BTF): weaker
- binding against the reference (TRAP150): weaker
Substance: PSF (from UniProt P23246) T687A
